Assays:
[1] = biological target: GST-TBP (glutathione S-transferase-tagged human TATA-binding protein) (human) (UniProt P20226); assay: pull-down; GST pull-down with increasing amounts of protein (p53 by the text, GST proteins by the legend); ratio of bound p53 to input by band intensity
[2] = biological target: FH-p53 (FLAG- and oligohistidine-tagged human p53) (human) (UniProt P04637); assay: pull-down; competitive GST pull-down: FH-TLP or FH-TBP co-applied with FH-p53 to beads with GST-TBP or GST-TLP; recovered p53 by band intensity

Chain of GST-TBP (glutathione S-transferase-tagged human TATA-binding protein) (human) (P20226 whole entry): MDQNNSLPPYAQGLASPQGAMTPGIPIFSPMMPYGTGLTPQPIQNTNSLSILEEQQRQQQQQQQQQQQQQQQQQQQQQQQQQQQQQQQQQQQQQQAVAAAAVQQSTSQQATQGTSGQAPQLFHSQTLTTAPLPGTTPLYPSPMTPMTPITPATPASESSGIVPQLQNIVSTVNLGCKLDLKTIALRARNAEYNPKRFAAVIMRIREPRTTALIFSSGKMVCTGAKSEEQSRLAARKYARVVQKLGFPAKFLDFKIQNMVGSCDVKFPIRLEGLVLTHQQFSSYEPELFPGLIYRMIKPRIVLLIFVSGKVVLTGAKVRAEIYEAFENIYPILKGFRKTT

| Substance | ratio of bound p53 to input at the plateau [1] | p53 recovered on GST-TLP with FH-TBP as competitor, percent of the control experiment [2] [%] |
| --- | --- | --- |
| FH-p53 (FLAG- and oligohistidine-tagged human p53) (from UniProt P04637 1-393) (natural protein) | 0.5 |  |
| FH-TBP (purified competitor in the pull-down) (from UniProt P20226 1-339) (natural protein) |  | 6 |

Source: paper PMC3940844
